According to the supplement of paper PMC10567573:

B1: KCNG1 (parent)
chain: AVNLSVSTLPSLREEEEQVRAHAP

Variants of: B1
Test: protein stability index of a GFP-peptide fusion (GPS, HEK-293T) (PSI 1-6); higher = more stable
Conditions: c terminus: a fixed tail appended
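Further: lentivirally expressed fusions sorted by FACS into six bins by GFP to DsRed ratio, PSI derived from sequencing read proportions per bin multiplied by bin number.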

In order of rising protein stability index:
1. AVNLSVSTLPSLREEEWQVRAHAP [E17W]  3.08
2. AVNLSVSTLPSLREEEFQVRAHAP [E17F]  3.23
3. AVNLSVSTLPSLREEIEQVRAHAP [E16I]  3.27
4. AVNLSVSTLPSLREEWEQVRAHAP [E16W]  3.38
5. AVNLSVSTLPSLRELEEQVRAHAP [E15L]  3.42
6. AVNLSVSTLPSLREWEEQVRAHAP [E15W]  3.52
7. AVNLSVSTLPSLREEMEQVRAHAP [E16M]  3.56
8. AVNLSVSTLPSLREEFEQVRAHAP [E16F]  3.59
9. AVNLSVSTLPSLREEEYQVRAHAP [E17Y]  3.6
10. AVNLSVSTLPSLREEYEQVRAHAP [E16Y]  3.63
11. AVNLSVSTLPSLREYEEQVRAHAP [E15Y]  3.64
12. AVNLSVSTLPSLREELEQVRAHAP [E16L]  3.82
13. AVNLSVSTLPSLREEPEQVRAHAP [E16P]  3.96
14. AVNLSVSTLPSLREEEEWVRAHAP [Q18W]  4.05
15. AVNLSVSTLPSLREVEEQVRAHAP [E15V]  4.06
16. AVNLSVSTLPSLREEELQVRAHAP [E17L]  4.11
17. AVNLSVSTLPSLREETEQVRAHAP [E16T]  4.12
18. AVNLSVSTLPSLREEEEFVRAHAP [Q18F]  4.17
19. AVNLSVSTLPSLREEREQVRAHAP [E16R]  4.18
20. AVNLSVSTLPSLREEECQVRAHAP [E17C]  4.2
21. AVNLSVSTLPSLREEEIQVRAHAP [E17I]  4.23
22. AVNLSVSTLPSLREENEQVRAHAP [E16N]  4.26
23. AVNLSVSTLPSLREECEQVRAHAP [E16C]  4.26
24. AVNLSVSTLPSLREESEQVRAHAP [E16S]  4.27
25. AVNLSVSTLPSLREEQEQVRAHAP [E16Q]  4.27
26. AVNLSVSTLPSLREMEEQVRAHAP [E15M]  4.29
27. AVNLSVSTLPSLREEETQVRAHAP [E17T]  4.32
28. AVNLSVSTLPSLREEVEQVRAHAP [E16V]  4.32
29. AVNLSVSTLPSLREEEVQVRAHAP [E17V]  4.38
30. AVNLSVSTLPSLREEEEYVRAHAP [Q18Y]  4.42
31. AVNLSVSTLPSLREEEHQVRAHAP [E17H]  4.43
32. AVNLSVSTLPSLREEEKQVRAHAP [E17K]  4.43
33. AVNLSVSTLPSLREEEMQVRAHAP [E17M]  4.46
34. AVNLSVSTLPSLREEEEQWRAHAP [V19W]  4.46
35. AVNLSVSTLPSLREEKEQVRAHAP [E16K]  4.46
36. AVNLSVSTLPSLREEAEQVRAHAP [E16A]  4.48
37. AVNLSVSTLPSLREEEEQVFAHAP [R20F]  4.48
38. AVNLSVSTLPSLREEHEQVRAHAP [E16H]  4.49
39. AVNLSVSTLPSLRETEEQVRAHAP [E15T]  4.52
40. AVNLSVSTLPSLREEEERVRAHAP [Q18R]  4.55
41. AVNLSVSTLPSLREEEEVVRAHAP [Q18V]  4.55
42. AVNLSVSTLPSLREEESQVRAHAP [E17S]  4.61
43. AVNLSVSTLPSLREEERQVRAHAP [E17R]  4.61
44. AVNLSVSTLPSLRENEEQVRAHAP [E15N]  4.61
45. AVNLSVSTLPSLREEEEQFRAHAP [V19F]  4.62
46. AVNLSVSTLPSLREEEGQVRAHAP [E17G]  4.64
47. AVNLSVSTLPSLREEEEHVRAHAP [Q18H]  4.67
48. AVNLSVSTLPSLREEEAQVRAHAP [E17A]  4.67
49. AVNLSVSTLPSLREEGEQVRAHAP [E16G]  4.67
50. AVNLSVSTLPSLREEEQQVRAHAP [E17Q]  4.69
51. AVNLSVSTLPSLREEEPQVRAHAP [E17P]  4.71
52. AVNLSVSTLPSLREEEEQYRAHAP [V19Y]  4.71
53. AVNLSVSTLPSLREEEDQVRAHAP [E17D]  4.73
54. AVNLSVSTLPSLREEENQVRAHAP [E17N]  4.73
55. AVNLSVSTLPSLREEEEQRRAHAP [V19R]  4.73
56. AVNLSVSTLPSLREEEEAVRAHAP [Q18A]  4.75
57. AVNLSVSTLPSLREEEEKVRAHAP [Q18K]  4.75
58. AVNLSVSTLPSLREREEQVRAHAP [E15R]  4.76
59. AVNLSVSTLPSLREEEEMVRAHAP [Q18M]  4.77
60. AVNLSVSTLPSLREEEEQVCAHAP [R20C]  4.79
61. AVNLSVSTLPSLREQEEQVRAHAP [E15Q]  4.79
62. AVNLSVSTLPSLRESEEQVRAHAP [E15S]  4.8
63. AVNLSVSTLPSLREEEEIVRAHAP [Q18I]  4.82
64. AVNLSVSTLPSLREKEEQVRAHAP [E15K]  4.82
65. AVNLSVSTLPSLREEEEQCRAHAP [V19C]  4.84
66. AVNLSVSTLPSLREEEEQMRAHAP [V19M]  4.85
67. AVNLSVSTLPSLREEEEQTRAHAP [V19T]  4.9
68. AVNLSVSTLPSLREPEEQVRAHAP [E15P]  4.93
69. AVNLSVSTLPSLREEEENVRAHAP [Q18N]  4.95
70. AVNLSVSTLPSLREEEECVRAHAP [Q18C]  4.98
71. AVNLSVSTLPSLREEEEQARAHAP [V19A]  4.98
72. AVNLSVSTLPSLREEEETVRAHAP [Q18T]  4.99
73. AVNLSVSTLPSLREEEELVRAHAP [Q18L]  5
74. AVNLSVSTLPSLREEEEPVRAHAP [Q18P]  5.04
75. AVNLSVSTLPSLREEEEQKRAHAP [V19K]  5.07
76. AVNLSVSTLPSLREEEEQHRAHAP [V19H]  5.08
77. AVNLSVSTLPSLREEEEQNRAHAP [V19N]  5.09
78. AVNLSVSTLPSLREEEEQLRAHAP [V19L]  5.14
79. AVNLSVSTLPSLREEEEQIRAHAP [V19I]  5.15
80. AVNLSVSTLPSLREEEEGVRAHAP [Q18G]  5.17
81. AVNLSVSTLPSLREEEEDVRAHAP [Q18D]  5.2
82. AVNLSVSTLPSLREEEEQGRAHAP [V19G]  5.21
83. AVNLSVSTLPSLREEEEQQRAHAP [V19Q]  5.24
84. AVNLSVSTLPSLREEEESVRAHAP [Q18S]  5.26
85. AVNLSVSTLPSLREEDEQVRAHAP [E16D]  5.26
86. AVNLSVSTLPSLREEEEQERAHAP [V19E]  5.3
87. AVNLSVSTLPSLREEEEQSRAHAP [V19S]  5.33
88. AVNLSVSTLPSLREEEEQDRAHAP [V19D]  5.33
89. AVNLSVSTLPSLREEEEQPRAHAP [V19P]  5.36
90. AVNLSVSTLPSLREEEEQVGAHAP [R20G]  5.48
91. AVNLSVSTLPSLREEEEQVAAHAP [R20A]  5.56
92. AVNLSVSTLPSLREEEEEVRAHAP [Q18E]  5.57
93. AVNLSVSTLPSLREEEEQVEAHAP [R20E]  5.63
94. AVNLSVSTLPSLREEEEQVDAHAP [R20D]  5.96
